These results are taken from patent US20140242080A1 (Hoffmann-La Roche, published 2014).

Experiment [1] has as its target T1, human CD3ε stalk-Fc (knob)-Avi/CD3δ-stalk-Fc(hole) (human).
T1 construct: also called Human CD3ε/CD3δ; recombinant CD3ε/CD3δ
Briefly: SPR Biacore T100, 25 C; t1/2 = ln 2/koff. As to the method:
(§1) Capture IgG was coupled to the sensorchip surface by direct immobilization of around 7,500 resonance units (RU) at pH 5.0 using the standard amine coupling kit (Biacore, Freiburg/Germany). […] Since the interaction with murine MCSP (SEQ ID NO: 380) was expected to be weak the concentration range for this antigen was chosen between 3.9 and 500 nM. The dissociation for all interactions was monitored for 120 s. Bulk refractive index differences were corrected for by subtracting the response obtained on a reference flow cell.
(§2) Kinetic constants were derived using the Biacore T200 Evaluation Software (vAA, Biacore AB, Uppsala/Sweden), to fit rate equations for 1:1 Langmuir binding by numerical integration. […] The half-life (t_{1/2}) of the interaction was calculated using following formula: t_{1/2}=ln 2/koff.

Experiment [2] concerns the target T2, hu-MCSP(D3 domain)-avi-his (human, UniProt Q6UVK1 1582-2224).
T2 construct: Recombinant D3 domain with avi and his tags; also called human MCSP(D3 domain)-avi-his; Human MCSP D3
T2 sequence: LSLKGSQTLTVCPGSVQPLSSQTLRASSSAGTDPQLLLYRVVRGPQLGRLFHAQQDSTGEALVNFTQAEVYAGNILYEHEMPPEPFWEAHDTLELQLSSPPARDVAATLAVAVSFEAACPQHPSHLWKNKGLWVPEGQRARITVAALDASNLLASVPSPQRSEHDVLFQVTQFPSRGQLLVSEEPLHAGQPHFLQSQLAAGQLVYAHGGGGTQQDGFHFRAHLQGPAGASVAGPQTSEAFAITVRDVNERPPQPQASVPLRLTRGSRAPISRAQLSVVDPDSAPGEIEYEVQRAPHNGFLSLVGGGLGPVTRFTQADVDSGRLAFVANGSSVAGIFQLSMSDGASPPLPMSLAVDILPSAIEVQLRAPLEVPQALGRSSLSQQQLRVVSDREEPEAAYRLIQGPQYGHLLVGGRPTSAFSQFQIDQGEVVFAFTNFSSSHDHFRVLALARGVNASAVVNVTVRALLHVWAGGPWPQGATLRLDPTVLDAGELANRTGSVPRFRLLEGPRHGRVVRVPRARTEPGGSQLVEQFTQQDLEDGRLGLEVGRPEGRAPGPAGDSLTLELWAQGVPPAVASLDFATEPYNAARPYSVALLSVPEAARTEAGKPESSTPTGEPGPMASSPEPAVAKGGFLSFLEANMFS
Briefly: SPR Biacore T100, 25 C; t1/2 = ln 2/koff. On the procedure:
as §1, §2
A general note: Surface plasmon resonance follows binding to a sensor surface in real time, without labels.

For experiment [3], the target named is T3, cynomolgus MCSP D3 (cynomolgus, UniProt Q6UVK1 1582-2224 (human entry), limits assumed).
T3 construct: also called Cyno MCSP; cynomolgus homologue
T3 chain: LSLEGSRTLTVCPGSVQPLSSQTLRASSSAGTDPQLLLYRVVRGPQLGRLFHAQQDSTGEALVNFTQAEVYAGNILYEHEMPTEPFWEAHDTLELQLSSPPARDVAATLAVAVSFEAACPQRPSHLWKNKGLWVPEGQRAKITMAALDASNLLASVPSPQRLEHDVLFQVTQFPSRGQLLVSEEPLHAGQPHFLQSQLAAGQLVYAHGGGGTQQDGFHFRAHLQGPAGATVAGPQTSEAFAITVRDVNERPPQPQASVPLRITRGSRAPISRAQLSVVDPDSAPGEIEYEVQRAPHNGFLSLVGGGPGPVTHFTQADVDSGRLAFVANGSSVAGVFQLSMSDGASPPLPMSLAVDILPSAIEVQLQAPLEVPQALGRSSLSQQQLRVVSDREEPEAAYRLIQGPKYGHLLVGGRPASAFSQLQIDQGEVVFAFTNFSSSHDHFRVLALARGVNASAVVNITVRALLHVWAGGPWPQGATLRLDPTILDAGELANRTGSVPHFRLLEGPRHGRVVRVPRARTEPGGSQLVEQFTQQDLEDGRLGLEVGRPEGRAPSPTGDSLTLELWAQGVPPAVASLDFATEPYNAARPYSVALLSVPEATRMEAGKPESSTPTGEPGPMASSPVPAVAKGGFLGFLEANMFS
In words: SPR Biacore T100, 25 C; t1/2 = ln 2/koff. As to the method: as §1, §2

Experiment [4] has as its target T1, human CD3ε stalk-Fc …. Briefly: SPR Biacore T100, 25 C; TCB captured via anti-human Fab, antigen as analyte. On the procedure:
(§3) Surface plasmon resonance (SPR) experiments were performed on a Biacore T100 at 25° C. with HBS-EP as running buffer (0.01 M HEPES pH 7.4, 0.15 M NaCl, 3 mM EDTA, 0.005% Surfactant P20, Biacore, Freiburg/Germany).
as §1, §2

The target of experiment [5] is T2, hu-MCSP(D3 domain)-avi-his. The description is as above. As to the method:
as §3, §1, §2

For experiment [6], the target named is T3, cynomolgus MCSP D3. Described as above. On the procedure:
as §3, §1, §2

A further experiment deals with T4, murine MCSP D3 (murine, UniProt Q8VHY0 1587-2218, limits assumed).
T4 construct: also called recombinant murine MCSP D3
T4 sequence: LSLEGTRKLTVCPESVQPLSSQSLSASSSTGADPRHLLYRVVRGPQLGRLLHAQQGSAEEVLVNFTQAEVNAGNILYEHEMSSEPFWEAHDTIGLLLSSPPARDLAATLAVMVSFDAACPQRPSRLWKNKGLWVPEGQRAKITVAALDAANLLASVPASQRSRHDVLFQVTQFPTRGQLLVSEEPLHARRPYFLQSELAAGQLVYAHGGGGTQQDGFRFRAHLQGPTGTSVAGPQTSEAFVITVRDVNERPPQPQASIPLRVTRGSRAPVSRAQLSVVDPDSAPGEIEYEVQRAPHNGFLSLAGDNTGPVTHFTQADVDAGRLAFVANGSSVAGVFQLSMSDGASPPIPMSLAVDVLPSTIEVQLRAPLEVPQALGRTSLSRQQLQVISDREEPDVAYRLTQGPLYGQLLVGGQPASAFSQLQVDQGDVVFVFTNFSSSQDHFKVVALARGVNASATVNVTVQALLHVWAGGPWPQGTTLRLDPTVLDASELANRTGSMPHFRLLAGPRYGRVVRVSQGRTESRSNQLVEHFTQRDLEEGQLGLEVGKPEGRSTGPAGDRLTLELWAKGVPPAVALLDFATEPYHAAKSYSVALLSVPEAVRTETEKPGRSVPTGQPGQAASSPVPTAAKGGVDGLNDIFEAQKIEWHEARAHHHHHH
In words: SPR Biacore T100, 25 C; TCB captured via anti-human Fab, antigen as analyte; steady state. On the procedure:
as §1, §2

Experiment [7] concerns the target T5, muFcγRIV-aviHis-biotin (murine, UniProt A0A0B4J1G0 21-203, Biotinylated at the avi tag (tag not included in the letters)).
T5 construct: Captured by anti-Penta His antibody; also called murine FcγRIV; not shown: exact C-terminal limit of the soluble construct
T5 sequence: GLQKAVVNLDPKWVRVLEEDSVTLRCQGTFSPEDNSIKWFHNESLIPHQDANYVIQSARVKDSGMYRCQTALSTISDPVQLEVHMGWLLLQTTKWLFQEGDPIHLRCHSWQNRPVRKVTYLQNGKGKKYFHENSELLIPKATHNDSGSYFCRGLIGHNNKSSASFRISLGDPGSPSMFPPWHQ
In words: SPR Biacore T100, 25 C; receptor captured via anti-Penta His, construct as analyte; kinetic. On the procedure:
(§4) For analyzing interaction of different Fc-variants with human FcγRIIIa-V158 and murine FcγRIV direct coupling of around 6,500 resonance units (RU) of the anti-Penta His antibody (Qiagen) is performed on a CM5 chip at pH 5.0 using the standard amine coupling kit (Biacore, Freiburg/Germany). HuFcγRIIIa-V158-K6H6 and muFcγRIV-aviHis-biotin are captured for 60 s at 4 and 10 nM respectively.
(§5) Constructs with different Fc-mutations are passed through the flow cells for 120 s at a concentration of 1000 nM with a flow rate of 30 μl/min. The dissociation is monitored for 220 s. Bulk refractive index differences are corrected for by subtracting the response obtained in a reference flow cell. […] Affinity for human FcγRIIIa-V158 and murine FcγRIV was determined for wild-type Fc using a concentration range from 500-4000 nM.
(§6) The steady state response was used to derive the dissociation constant KD by non-linear curve fitting of the Langmuir binding isotherm. Kinetic constants were derived using the Biacore T100 Evaluation Software (vAA, Biacore AB, Uppsala/Sweden), to fit rate equations for 1:1 Langmuir binding by numerical integration.

The target in experiment [8] is T6, HuFcγRIIIa-V158-K6H6 (human, UniProt P08637 17-208, limits assumed).
T6 construct: His-tagged recombinant receptor captured by anti-Penta His antibody; also called human FcγRIIIa-V158; human FcγRIIIa
Briefly: SPR Biacore T100, 25 C; receptor captured via anti-Penta His, construct as analyte; kinetic, one concentration (1000 nM). On the procedure: as §4, §5

The target of experiment [9] is T5, muFcγRIV-aviHis-biotin. In words: SPR Biacore T100, 25 C; receptor captured via anti-Penta His, construct as analyte; steady state. On the procedure:
as §4, §5, §6

Experiment [10] deals with T6, HuFcγRIIIa-V158-K6H6. The description is as above. On the procedure: as §4, §5, §6
The target in experiment [11] is T6, HuFcγRIIIa-V158-K6H6. Briefly: SPR Biacore T100, 25 C; receptor captured via anti-Penta His, construct as analyte; kinetic, value in brackets not explained. On the procedure:
as §4, §5, §6

T6 sequence (P08637 17-208 F176V limits assumed): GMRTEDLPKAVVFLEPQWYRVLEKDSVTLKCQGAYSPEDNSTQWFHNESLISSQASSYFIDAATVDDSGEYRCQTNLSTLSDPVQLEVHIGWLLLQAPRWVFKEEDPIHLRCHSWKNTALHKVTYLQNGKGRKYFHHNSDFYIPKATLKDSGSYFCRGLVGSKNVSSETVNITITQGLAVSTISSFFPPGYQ
T1 sequence (chain, as listed by the source mutant limits assumed, chain 1 of 2): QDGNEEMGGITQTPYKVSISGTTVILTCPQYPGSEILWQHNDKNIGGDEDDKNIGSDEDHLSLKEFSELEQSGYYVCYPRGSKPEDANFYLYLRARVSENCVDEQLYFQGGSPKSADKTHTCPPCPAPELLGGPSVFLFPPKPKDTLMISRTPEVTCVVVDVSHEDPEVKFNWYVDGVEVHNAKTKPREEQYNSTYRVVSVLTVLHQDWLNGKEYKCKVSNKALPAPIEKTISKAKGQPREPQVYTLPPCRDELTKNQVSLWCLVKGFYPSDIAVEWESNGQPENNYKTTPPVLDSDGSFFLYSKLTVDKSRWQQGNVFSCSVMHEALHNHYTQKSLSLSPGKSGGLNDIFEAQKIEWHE
T1 sequence (chain, as listed by the source mutant limits assumed, chain 2 of 2): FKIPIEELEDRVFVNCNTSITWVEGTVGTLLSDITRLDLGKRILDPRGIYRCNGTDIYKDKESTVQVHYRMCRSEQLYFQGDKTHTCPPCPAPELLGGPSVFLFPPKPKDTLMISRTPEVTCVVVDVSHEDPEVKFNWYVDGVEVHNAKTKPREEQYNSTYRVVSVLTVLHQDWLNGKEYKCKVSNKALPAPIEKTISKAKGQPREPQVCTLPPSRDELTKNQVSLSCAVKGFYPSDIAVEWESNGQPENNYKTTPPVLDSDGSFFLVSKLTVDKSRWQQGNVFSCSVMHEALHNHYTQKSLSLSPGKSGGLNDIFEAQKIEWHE

B1: MCSP TCB (2+1 Crossfab-IgG P329G LALA inverted) (bispecific antibody)
light 1: not shown
light 2: QAVVTQEPSLTVSPGGTVTLTCGSSTGAVTTSNYANWVQEKPGQAFRGLIGGTNKRAPGTPARFSGSLLGGKAALTLSGAQPEDEAEYYCALWYSNLWVFGGGTKLTVLSSASTKGPSVFPLAPSSKSTSGGTAALGCLVKDYFPEPVTVSWNSGALTSGVHTFPAVLQSSGLYSLSSVVTVPSSSLGTQTYICNVNHKPSNTKVDKKVEPKSC
heavy 1: not shown
heavy 2: QVQLQESGPGLVKPSQTLSLTCTVSGGSITSGYYWNWIRQHPGKGLEWIGYITFDGSNNYNPSLKSRVTISRDTSKNQFSLKLSSVTAADTAVYYCADFDYWGQGTLVTVSSASTKGPSVFPLAPSSKSTSGGTAALGCLVKDYFPEPVTVSWNSGALTSGVHTFPAVLQSSGLYSLSSVVTVPSSSLGTQTYICNVNHKPSNTKVDKKVEPKSCDKTHTCPPCPAPEAAGGPSVFLFPPKPKDTLMISRTPEVTCVVVDVSHEDPEVKFNWYVDGVEVHNAKTKPREEQYNSTYRVVSVLTVLHQDWLNGKEYKCKVSNKALGAPIEKTISKAKGQPREPQVCTLPPSRDELTKNQVSLSCAVKGFYPSDIAVEWESNGQPENNYKTTPPVLDSDGSFFLVSKLTVDKSRWQQGNVFSCSVMHEALHNHYTQKSLSLSPGK
notes: also called MCSP TCB antibody; MCSP CD3 bispecific antibody
Consider B1, for which the t1/2 turned out to be 2.9 min in [1], 3.42 h in experiment [2] and 4.38 h with cynomolgus MCSP D3 [3]. For the same molecule, the Kd (usually the equilibrium constant for the complex coming apart) stood at 78.7 nM in [4], 0.15 nM in experiment [5], 0.12 nM in the experiment with cynomolgus MCSP D3 [6] and 1570 nM with murine MCSP D3.

B2: “2+1 IgG scFab, wt” (anti-MCSP/anti-huCD3) (bispecific antibody)
chain 1: DIVLTQSPSSLSASLGDRVTISCSASQGIRNYLNWYQQRPDGTVKLLIYYTSSLHSGVPSRFSGSGSGTDYSLTISNLEPEDIATYYCQQYSKLPWTFGGGTKLEIKRTVAAPSVFIFPPSDEQLKSGTASVVCLLNNFYPREAKVQWKVDNALQSGNSQESVTEQDSKDSTYSLSSTLTLSKADYEKHKVYACEVTHQGLSSPVTKSFNRGEC
chain 2: not shown
chain 3: not shown
notes: Wild-type Fc domain; also called Fc-wt; copies: 2 + 1 + 1
On to B2, for which the Kd was 576 nM with muFcγRIV-aviHis-biotin [7]; 600 nM with HuFcγRIIIa-V158-K6H6 [8]; 1500 nM with muFcγRIV-aviHis-biotin [9]; 3470 nM with HuFcγRIIIa-V158-K6H6 [10]; 1200 nM with HuFcγRIIIa-V158-K6H6 [11].
